Reference: publication doi:10.1101/2024.02.27.582283

Target: SET-26::GFP, excessively sumoylated (ulp-2 loss of activity background) (C. elegans) (UniProt Q9U263)
Assay: co-IP

UniProt Q9U263, sequence (Q9U263 whole entry): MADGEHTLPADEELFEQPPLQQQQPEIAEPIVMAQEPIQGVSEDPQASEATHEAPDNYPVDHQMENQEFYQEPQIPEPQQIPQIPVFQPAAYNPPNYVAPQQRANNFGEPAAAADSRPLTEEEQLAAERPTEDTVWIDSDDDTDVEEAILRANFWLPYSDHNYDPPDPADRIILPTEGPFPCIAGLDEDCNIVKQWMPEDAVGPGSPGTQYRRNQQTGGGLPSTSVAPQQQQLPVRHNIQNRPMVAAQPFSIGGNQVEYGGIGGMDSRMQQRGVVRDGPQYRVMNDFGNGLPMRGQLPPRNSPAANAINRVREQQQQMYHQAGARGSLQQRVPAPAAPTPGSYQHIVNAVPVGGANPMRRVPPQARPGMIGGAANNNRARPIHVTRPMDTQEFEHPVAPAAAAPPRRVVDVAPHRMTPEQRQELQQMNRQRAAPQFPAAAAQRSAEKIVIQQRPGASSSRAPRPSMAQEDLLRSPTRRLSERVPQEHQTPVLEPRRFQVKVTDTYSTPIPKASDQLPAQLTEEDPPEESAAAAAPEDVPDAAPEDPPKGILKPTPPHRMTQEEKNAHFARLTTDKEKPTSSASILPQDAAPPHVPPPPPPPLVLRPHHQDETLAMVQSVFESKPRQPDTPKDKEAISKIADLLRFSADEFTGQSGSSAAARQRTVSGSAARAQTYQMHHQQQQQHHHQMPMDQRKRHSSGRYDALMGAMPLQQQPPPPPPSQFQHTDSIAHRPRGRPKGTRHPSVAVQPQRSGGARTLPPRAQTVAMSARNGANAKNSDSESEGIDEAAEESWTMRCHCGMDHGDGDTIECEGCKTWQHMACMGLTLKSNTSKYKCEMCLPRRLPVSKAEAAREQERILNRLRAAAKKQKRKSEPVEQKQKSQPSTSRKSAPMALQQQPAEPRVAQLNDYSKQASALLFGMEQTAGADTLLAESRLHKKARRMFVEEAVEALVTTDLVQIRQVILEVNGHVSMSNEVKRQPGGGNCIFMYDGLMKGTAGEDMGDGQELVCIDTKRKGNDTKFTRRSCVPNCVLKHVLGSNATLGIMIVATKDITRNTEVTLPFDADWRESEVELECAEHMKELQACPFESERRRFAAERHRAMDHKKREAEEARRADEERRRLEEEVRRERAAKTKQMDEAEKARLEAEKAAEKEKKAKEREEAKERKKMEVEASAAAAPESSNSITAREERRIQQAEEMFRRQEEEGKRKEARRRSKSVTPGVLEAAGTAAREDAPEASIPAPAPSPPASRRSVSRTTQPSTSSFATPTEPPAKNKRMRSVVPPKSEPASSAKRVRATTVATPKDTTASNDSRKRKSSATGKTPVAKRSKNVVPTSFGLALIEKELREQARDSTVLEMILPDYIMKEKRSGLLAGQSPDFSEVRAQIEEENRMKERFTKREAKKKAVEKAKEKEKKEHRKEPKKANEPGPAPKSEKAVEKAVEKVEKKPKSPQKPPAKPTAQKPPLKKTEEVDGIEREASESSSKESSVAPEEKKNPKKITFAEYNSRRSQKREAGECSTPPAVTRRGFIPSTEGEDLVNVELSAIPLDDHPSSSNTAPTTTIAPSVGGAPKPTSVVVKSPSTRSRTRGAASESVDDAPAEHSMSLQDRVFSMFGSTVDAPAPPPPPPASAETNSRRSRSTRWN

reduction of binding compared with WT: 55%
Substance: Histone H3 trimethylated at lysine 4 (H3K4me3) (from UniProt P08898 1-136) (natural protein)
